Data: patent US20140087995A1 (published 2014)
Numbered stars: 1 amine (or outer) side, 2 acyl side, 3 side chain; on linkers, the order of the positions; unused ones are H or OH. Bridge positions count the residues as written; N and C are the ends. Side chains are listed from the residue outwards. Ends that are not written are not given here. * marks the point of attachment. C20 diacid = O=C(O)CCCCCCCCCCCCCCCCCCC(=O)*; γGlu = O=C(O)[C@H](CCC(=O)[*:2])N[*:1]; AEEA = NCCOCCOCC(=O)O

T1: human calcitonin receptor (human, UniProt P30988 25-474)
T1 sequence (looked up): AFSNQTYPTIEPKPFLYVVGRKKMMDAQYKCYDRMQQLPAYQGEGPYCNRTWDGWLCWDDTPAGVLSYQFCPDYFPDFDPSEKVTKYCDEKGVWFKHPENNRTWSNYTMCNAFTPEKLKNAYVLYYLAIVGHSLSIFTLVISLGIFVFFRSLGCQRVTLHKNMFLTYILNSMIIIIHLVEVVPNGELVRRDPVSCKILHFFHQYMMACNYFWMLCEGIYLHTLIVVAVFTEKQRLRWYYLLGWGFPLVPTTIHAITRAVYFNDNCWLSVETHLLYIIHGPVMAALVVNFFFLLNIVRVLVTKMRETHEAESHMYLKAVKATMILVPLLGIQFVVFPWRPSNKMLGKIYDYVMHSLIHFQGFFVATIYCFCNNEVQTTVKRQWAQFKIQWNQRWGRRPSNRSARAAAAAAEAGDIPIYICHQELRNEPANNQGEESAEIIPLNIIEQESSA

B1: N^ε1-[2-[2-[2-(19-carboxynonadecanoylamino)ethoxy]ethoxy]acetyl]-[Arg17,Pro21,Pro27,His34]-h-amylin (peptide)
peptide: K([AEEA-C20 diacid])CNTATCATQRLANFLRHSSPNFGAIPSSTNVGHNTY-NH2
modifications: disulfide 2-7; N-terminus assumed
SMILES: CC[C@H](C)[C@H](NC(=O)[C@H](C)NC(=O)CNC(=O)[C@H](Cc1ccccc1)NC(=O)[C@H](CC(N)=O)NC(=O)[C@@H]1CCCN1C(=O)[C@H](CO)NC(=O)[C@H](CO)NC(=O)[C@H](Cc1c[nH]cn1)NC(=O)[C@H](CCCNC(=N)N)NC(=O)[C@H](CC(C)C)NC(=O)[C@H](Cc1ccccc1)NC(=O)[C@H](CC(N)=O)NC(=O)[C@H](C)NC(=O)[C@H](CC(C)C)NC(=O)[C@H](CCCNC(=N)N)NC(=O)[C@H](CCC(N)=O)NC(=O)[C@@H](NC(=O)[C@H](C)NC(=O)[C@@H]1CSSC[C@H](NC(=O)[C@@H](N)CCCCNC(=O)COCCOCCNC(=O)CCCCCCCCCCCCCCCCCCC(=O)O)C(=O)N[C@@H](CC(N)=O)C(=O)N[C@@H]([C@@H](C)O)C(=O)N[C@@H](C)C(=O)N[C@@H]([C@@H](C)O)C(=O)N1)[C@@H](C)O)C(=O)N1CCC[C@H]1C(=O)N[C@@H](CO)C(=O)N[C@@H](CO)C(=O)N[C@H](C(=O)N[C@@H](CC(N)=O)C(=O)N[C@H](C(=O)NCC(=O)N[C@@H](Cc1c[nH]cn1)C(=O)N[C@@H](CC(N)=O)C(=O)N[C@H](C(=O)N[C@@H](Cc1ccc(O)cc1)C(N)=O)[C@@H](C)O)C(C)C)[C@@H](C)O
notes: also called compound 91
B2: N^ε1-[2-[2-[2-[[2-[2-[2-[[(4S)-4-carboxy-4-(19-carboxynonadecanoylamino)butanoyl]amino]ethoxy]ethoxy]acetyl]amino]ethoxy]ethoxy]acetyl]-[Arg17,Pro21,Pro27,His34 … (peptide)
peptide: K([AEEA-AEEA-γGlu-C20 diacid])CNTATCATQRLANFLRHSSPNFGAIPSSTNVGHNTY-NH2
modifications: disulfide 2-7; N-terminus assumed
SMILES: CC[C@H](C)[C@H](NC(=O)[C@H](C)NC(=O)CNC(=O)[C@H](Cc1ccccc1)NC(=O)[C@H](CC(N)=O)NC(=O)[C@@H]1CCCN1C(=O)[C@H](CO)NC(=O)[C@H](CO)NC(=O)[C@H](Cc1c[nH]cn1)NC(=O)[C@H](CCCNC(=N)N)NC(=O)[C@H](CC(C)C)NC(=O)[C@H](Cc1ccccc1)NC(=O)[C@H](CC(N)=O)NC(=O)[C@H](C)NC(=O)[C@H](CC(C)C)NC(=O)[C@H](CCCNC(=N)N)NC(=O)[C@H](CCC(N)=O)NC(=O)[C@@H](NC(=O)[C@H](C)NC(=O)[C@@H]1CSSC[C@H](NC(=O)[C@@H](N)CCCCNC(=O)COCCOCCNC(=O)COCCOCCNC(=O)CC[C@H](NC(=O)CCCCCCCCCCCCCCCCCCC(=O)O)C(=O)O)C(=O)N[C@@H](CC(N)=O)C(=O)N[C@@H]([C@@H](C)O)C(=O)N[C@@H](C)C(=O)N[C@@H]([C@@H](C)O)C(=O)N1)[C@@H](C)O)C(=O)N1CCC[C@H]1C(=O)N[C@@H](CO)C(=O)N[C@@H](CO)C(=O)N[C@H](C(=O)N[C@@H](CC(N)=O)C(=O)N[C@H](C(=O)NCC(=O)N[C@@H](Cc1c[nH]cn1)C(=O)N[C@@H](CC(N)=O)C(=O)N[C@H](C(=O)N[C@@H](Cc1ccc(O)cc1)C(N)=O)[C@@H](C)O)C(C)C)[C@@H](C)O
notes: also called compound 97
B3: N^ε1-[2-[2-[2-[[2-[2-[2-[[(4S)-4-carboxy-4-(19-carboxynonadecanoylamino)butanoyl]amino]ethoxy]ethoxy]acetyl]amino]ethoxy]ethoxy]acetyl]-[Arg17,Pro21,Pro27,Pro34 … (peptide)
peptide: K([AEEA-AEEA-γGlu-C20 diacid])CNTATCATQRLANFLRHSSPNFGAIPSSTNVGPNTY-NH2
modifications: disulfide 2-7; N-terminus assumed
SMILES: CC[C@H](C)[C@H](NC(=O)[C@H](C)NC(=O)CNC(=O)[C@H](Cc1ccccc1)NC(=O)[C@H](CC(N)=O)NC(=O)[C@@H]1CCCN1C(=O)[C@H](CO)NC(=O)[C@H](CO)NC(=O)[C@H](Cc1c[nH]cn1)NC(=O)[C@H](CCCNC(=N)N)NC(=O)[C@H](CC(C)C)NC(=O)[C@H](Cc1ccccc1)NC(=O)[C@H](CC(N)=O)NC(=O)[C@H](C)NC(=O)[C@H](CC(C)C)NC(=O)[C@H](CCCNC(=N)N)NC(=O)[C@H](CCC(N)=O)NC(=O)[C@@H](NC(=O)[C@H](C)NC(=O)[C@@H]1CSSC[C@H](NC(=O)[C@@H](N)CCCCNC(=O)COCCOCCNC(=O)COCCOCCNC(=O)CC[C@H](NC(=O)CCCCCCCCCCCCCCCCCCC(=O)O)C(=O)O)C(=O)N[C@@H](CC(N)=O)C(=O)N[C@@H]([C@@H](C)O)C(=O)N[C@@H](C)C(=O)N[C@@H]([C@@H](C)O)C(=O)N1)[C@@H](C)O)C(=O)N1CCC[C@H]1C(=O)N[C@@H](CO)C(=O)N[C@@H](CO)C(=O)N[C@H](C(=O)N[C@@H](CC(N)=O)C(=O)N[C@H](C(=O)NCC(=O)N1CCC[C@H]1C(=O)N[C@@H](CC(N)=O)C(=O)N[C@H](C(=O)N[C@@H](Cc1ccc(O)cc1)C(N)=O)[C@@H](C)O)C(C)C)[C@@H](C)O
notes: also called compound 98
B4: N^ε1-[2-[2-[2-[[(4S)-4-carboxy-4-(19-carboxynonadecanoylamino)butanoyl]amino]ethoxy]ethoxy]acetyl]-[Ala14,Arg17,Pro21,Pro27,Pro31]-h-amylin (peptide)
peptide: K([AEEA-γGlu-C20 diacid])CNTATCATQRLAAFLRHSSPNFGAIPSSTPVGSNTY-NH2
modifications: disulfide 2-7; N-terminus assumed
SMILES: CC[C@H](C)[C@H](NC(=O)[C@H](C)NC(=O)CNC(=O)[C@H](Cc1ccccc1)NC(=O)[C@H](CC(N)=O)NC(=O)[C@@H]1CCCN1C(=O)[C@H](CO)NC(=O)[C@H](CO)NC(=O)[C@H](Cc1c[nH]cn1)NC(=O)[C@H](CCCNC(=N)N)NC(=O)[C@H](CC(C)C)NC(=O)[C@H](Cc1ccccc1)NC(=O)[C@H](C)NC(=O)[C@H](C)NC(=O)[C@H](CC(C)C)NC(=O)[C@H](CCCNC(=N)N)NC(=O)[C@H](CCC(N)=O)NC(=O)[C@@H](NC(=O)[C@H](C)NC(=O)[C@@H]1CSSC[C@H](NC(=O)[C@@H](N)CCCCNC(=O)COCCOCCNC(=O)CC[C@H](NC(=O)CCCCCCCCCCCCCCCCCCC(=O)O)C(=O)O)C(=O)N[C@@H](CC(N)=O)C(=O)N[C@@H]([C@@H](C)O)C(=O)N[C@@H](C)C(=O)N[C@@H]([C@@H](C)O)C(=O)N1)[C@@H](C)O)C(=O)N1CCC[C@H]1C(=O)N[C@@H](CO)C(=O)N[C@@H](CO)C(=O)N[C@H](C(=O)N1CCC[C@H]1C(=O)N[C@H](C(=O)NCC(=O)N[C@@H](CO)C(=O)N[C@@H](CC(N)=O)C(=O)N[C@H](C(=O)N[C@@H](Cc1ccc(O)cc1)C(N)=O)[C@@H](C)O)C(C)C)[C@@H](C)O
notes: also called compound 72
B5: N^ε1-[2-[2-[2-[[2-[2-[2-[[(4S)-4-carboxy-4-(19-carboxynonadecanoylamino)butanoyl]amino]ethoxy]ethoxy]acetyl]amino]ethoxy]ethoxy]acetyl]-[Arg17,Pro21,Pro27,Pro31 … (peptide)
peptide: K([AEEA-AEEA-γGlu-C20 diacid])CNTATCATQRLANFLRHSSPNFGAIPSSTPVGSNTY-NH2
modifications: disulfide 2-7; N-terminus assumed
SMILES: CC[C@H](C)[C@H](NC(=O)[C@H](C)NC(=O)CNC(=O)[C@H](Cc1ccccc1)NC(=O)[C@H](CC(N)=O)NC(=O)[C@@H]1CCCN1C(=O)[C@H](CO)NC(=O)[C@H](CO)NC(=O)[C@H](Cc1c[nH]cn1)NC(=O)[C@H](CCCNC(=N)N)NC(=O)[C@H](CC(C)C)NC(=O)[C@H](Cc1ccccc1)NC(=O)[C@H](CC(N)=O)NC(=O)[C@H](C)NC(=O)[C@H](CC(C)C)NC(=O)[C@H](CCCNC(=N)N)NC(=O)[C@H](CCC(N)=O)NC(=O)[C@@H](NC(=O)[C@H](C)NC(=O)[C@@H]1CSSC[C@H](NC(=O)[C@@H](N)CCCCNC(=O)COCCOCCNC(=O)COCCOCCNC(=O)CC[C@H](NC(=O)CCCCCCCCCCCCCCCCCCC(=O)O)C(=O)O)C(=O)N[C@@H](CC(N)=O)C(=O)N[C@@H]([C@@H](C)O)C(=O)N[C@@H](C)C(=O)N[C@@H]([C@@H](C)O)C(=O)N1)[C@@H](C)O)C(=O)N1CCC[C@H]1C(=O)N[C@@H](CO)C(=O)N[C@@H](CO)C(=O)N[C@H](C(=O)N1CCC[C@H]1C(=O)N[C@H](C(=O)NCC(=O)N[C@@H](CO)C(=O)N[C@@H](CC(N)=O)C(=O)N[C@H](C(=O)N[C@@H](Cc1ccc(O)cc1)C(N)=O)[C@@H](C)O)C(C)C)[C@@H](C)O
notes: also called compound 96
B6: N^ε1-[2-[2-[2-[[2-[2-[2-[[(4S)-4-carboxy-4-(19-carboxynonadecanoylamino)butanoyl]amino]ethoxy]ethoxy]acetyl]amino]ethoxy]ethoxy]acetyl]-[Arg17,Pro21,Pro27,Arg34 … (peptide)
peptide: K([AEEA-AEEA-γGlu-C20 diacid])CNTATCATQRLANFLRHSSPNFGAIPSSTNVGRNTY-NH2
modifications: disulfide 2-7; N-terminus assumed
SMILES: CC[C@H](C)[C@H](NC(=O)[C@H](C)NC(=O)CNC(=O)[C@H](Cc1ccccc1)NC(=O)[C@H](CC(N)=O)NC(=O)[C@@H]1CCCN1C(=O)[C@H](CO)NC(=O)[C@H](CO)NC(=O)[C@H](Cc1c[nH]cn1)NC(=O)[C@H](CCCNC(=N)N)NC(=O)[C@H](CC(C)C)NC(=O)[C@H](Cc1ccccc1)NC(=O)[C@H](CC(N)=O)NC(=O)[C@H](C)NC(=O)[C@H](CC(C)C)NC(=O)[C@H](CCCNC(=N)N)NC(=O)[C@H](CCC(N)=O)NC(=O)[C@@H](NC(=O)[C@H](C)NC(=O)[C@@H]1CSSC[C@H](NC(=O)[C@@H](N)CCCCNC(=O)COCCOCCNC(=O)COCCOCCNC(=O)CC[C@H](NC(=O)CCCCCCCCCCCCCCCCCCC(=O)O)C(=O)O)C(=O)N[C@@H](CC(N)=O)C(=O)N[C@@H]([C@@H](C)O)C(=O)N[C@@H](C)C(=O)N[C@@H]([C@@H](C)O)C(=O)N1)[C@@H](C)O)C(=O)N1CCC[C@H]1C(=O)N[C@@H](CO)C(=O)N[C@@H](CO)C(=O)N[C@H](C(=O)N[C@@H](CC(N)=O)C(=O)N[C@H](C(=O)NCC(=O)N[C@@H](CCCNC(=N)N)C(=O)N[C@@H](CC(N)=O)C(=O)N[C@H](C(=O)N[C@@H](Cc1ccc(O)cc1)C(N)=O)[C@@H](C)O)C(C)C)[C@@H](C)O
notes: also called compound 95

Biological target: T1, human calcitonin receptor
Experiment: cell-based or functional assay

| hCTR funct. EC50 [nM] | Binder |
| --- | --- |
| 1.48 | B1 |
| 11.8 | B2 |
| 1.63 | B3 |
| 4.76 | B4 |
| 3.8 | B5 |
| 21.5 | B6 |
